Measurements published in paper PMC10457330.

Key:
[1] = target: photoactivated bovine rhodopsin (bovine) (UniProt P02699)
[2] = target: P23H bovine opsin (bovine) (UniProt P02699)
[3] = target: photoactivated bovine rhodopsin (bovine) (UniProt P02699); remark: listed apart in the source

UV-Vis decay of A478 nm after addition of 5 mM hydroxylamine, plateau against bRho* alone [1]: 4 times | opsin level by western blot (1D4) in HEK293S cells co-expressing Nb2 intracellularly, against the non-binding Nb16 control [2]: 2 fold | intrinsic Trp fluorescence at 330 nm after illumination (Meta II decay, release of retinal) [3]: 3 fold
B1: Nb2 (llama nanobody against bovine rhodopsin) (VHH)
VHH: QVQLVESGGGLVQPGGSLRLSCAASGFTFSKYAMNWVRQPPGKGLEWVSGIRPSGDNPTYADSVEGRFTIIRDNDKKMVYLQMTSLKTEDTAVYYCTRGYGTMTIEGQGTQVTVSS
